The test deals with far-red light-acclimated photosystem I (FRL-PSI) complex of Synechococcus sp. PCC 7335, trimeric (Synechococcus sp. PCC 7335 (endogenous in Synechococcus 7335 cells)). Nature of the test: cryo-EM structure; trimeric FRL-PSI isolated whole from FRL-grown Synechococcus 7335 cells (1% β-DM, two sucrose gradients, PIB: 50 mM MES pH 6.5, 15 mM CaCl2, 10 mM MgCl2); Fd not added; ~3 mg Chl/ml, plunge-frozen at 4 °C; C3 symmetry, 2.91 Å.

The source of these data is PMC8689207.

In general, stoichiometry N refers to the number of molecules, sites or subunits per partner or assembly. Substance “far-red light-acclimated photosystem I (FRL-PSI) complex of Synechococcus sp. PCC 7335, trimeric” displayed a stoichiometry N of 3. As to “ferredoxin PetF1 (soluble [2Fe-2S] ferredoxin) of Synechococcus sp. PCC 7335 (natural protein)”, the occupancy came to 10%.
